# Reference: patent US11034762 (CENTIVAX, dated 2021)
# B1: COVID19_P09_D06 (scFv, V domains shown)
# VH: QVQLVQSGAEVKKPGSSVKVSCKASGYGFITYWIGWVRQAPGQGLEWMGIIYPGDSETRYAQKFQGRVTITADESTSTAYMELSSLRSEDTAVYYCAGGSGIYVPMDVWGQGTLVTVSS
# VL: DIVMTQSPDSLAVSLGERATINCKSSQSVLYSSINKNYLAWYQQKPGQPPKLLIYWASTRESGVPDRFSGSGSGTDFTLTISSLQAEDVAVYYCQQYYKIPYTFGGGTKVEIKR
# B2: COVID19_P22_B04 (scFv, V domains shown)
# VH: QVQLVQSGAEVKKPGSSVKVSCKASGYGFITYWIGWVRQAPGQGLEWMGIIYPGDSETRYAQKFQGRVTITADESTSTAYMELSSLRSEDTAVYYCAGGEGISTPMDVWGQGTLVTVSS
# VL: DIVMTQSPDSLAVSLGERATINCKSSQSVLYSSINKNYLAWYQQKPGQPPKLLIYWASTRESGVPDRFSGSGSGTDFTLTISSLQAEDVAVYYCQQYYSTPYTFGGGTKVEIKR
# B3: COVID19_P22_G12 (scFv, V domains shown)
# VH: QVQLVQSGAEVKKPGSSVKVSCKASGGGFITYWIGWVRQAPGQGLEWMGIIYPGDSETRYSQKFQGRVTITADESTSTAYMELSSLRSEDTAVYYCAGGSGISTPMDVWGQGTLVTVSS
# VL: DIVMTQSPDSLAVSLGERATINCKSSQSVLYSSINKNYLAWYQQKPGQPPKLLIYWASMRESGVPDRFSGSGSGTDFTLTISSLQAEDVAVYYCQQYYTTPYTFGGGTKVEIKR
# B4: COVID19_P09_G02 (scFv, V domains shown)
# VH: QVQLVQSGAEVKKPGSSVKVSCKASGGTFSSYAISWVRQAPGQGLEWMGIIYPGDSTTNYSQKFQGRVTITADESTSTAYMELSSLRSEDTAVYYCAGHWGISTPMDVWGQGTLVTVSS
# VL: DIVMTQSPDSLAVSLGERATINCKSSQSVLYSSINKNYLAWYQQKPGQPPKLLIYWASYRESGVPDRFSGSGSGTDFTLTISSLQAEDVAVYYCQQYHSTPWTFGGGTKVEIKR
# B5: COVID19_P21_B08 (scFv, V domains shown)
# VH: QVQLVQSGAEVKKPGSSVKVSCKASGGTFSSYAISWVRQAPGQGLEWMGVINTGGGSVTYAQKFQGRVTITADESTSTAYMELSSLRSEDTAVYYCAGHWGISTPMDVWGQGTLVTVSS
# VL: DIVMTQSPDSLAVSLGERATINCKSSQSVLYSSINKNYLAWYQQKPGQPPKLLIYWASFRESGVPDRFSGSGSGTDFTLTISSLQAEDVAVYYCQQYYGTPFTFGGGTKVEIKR
# B6: COVID19_P21_F04 (scFv, V domains shown)
# VH: QVQLVQSGAEVKKPGSSVKVSCKASGGTFSSYAISWVRQAPGQGLEWMGQINPSGDSTRYAQKFQGRVTITADESTSTAYMELSSLRSEDTAVYYCAGGSGISTPMDVWGQGTLVTVSS
# VL: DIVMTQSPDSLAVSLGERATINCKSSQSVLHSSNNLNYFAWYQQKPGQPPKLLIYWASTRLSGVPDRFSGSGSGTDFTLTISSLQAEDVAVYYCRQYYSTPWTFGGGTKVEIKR
# B7: COVID19_P21_A12 (scFv, V domains shown)
# VH: QVQLVQSGAEVKKPGSSVKVSCKASGGTFSSYAISWVRQAPGQGLEWMGSVIPVFGRPNYAQKFQGRVTITADESTSTAYMELSSLRSEDTAVYYCAGEWGISTPMDVWGQGTLVTVSS
# VL: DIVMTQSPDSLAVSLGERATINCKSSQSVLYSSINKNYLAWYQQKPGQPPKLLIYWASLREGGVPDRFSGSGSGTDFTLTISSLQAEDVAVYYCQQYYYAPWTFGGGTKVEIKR
# B8: COVID19_P22_B12 (scFv, V domains shown)
# VH: QVQLVQSGAEVKKPGSSVKVSCKASGGTLSSYAISWVRQAPGQGLEWMGIIYPGDSETRYSQKFQGRVTITADESTSTAYMELSSLRSEDTAVYYCAGGSGISTPRSVWGQGTLVTVSS
# VL: DIVMTQSPDSLAVSLGERATINCKSSRILSYSPDNKNYLAWYQQKPGQPPKLLIYWASTRESGVPDRFSGSGSGTDFTLTISSLQAEDVAVYYCQQSYITPYTFGGGTKVEIKR
# B9: COVID19_P10_B06 (scFv, V domains shown)
# VH: QVQLVQSGAEVKKPGSSVKVSCKASGGTFSSYAISWVRQAPGQGLEWMGIIYPGDSTTRYSQKFQGRVTITADESTSTAYMELSSLRSEDTAVYYCYSGSGISTPMDVWGQGTLVTVSS
# VL: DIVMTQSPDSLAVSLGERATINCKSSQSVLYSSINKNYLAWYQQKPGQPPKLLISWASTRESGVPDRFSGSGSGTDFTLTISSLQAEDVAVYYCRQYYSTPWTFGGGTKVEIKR
# B10: COVID19_P09_A09 (scFv, V domains shown)
# VH: QVQLVQSGAEVKKPGSSVKVSCKASGGTFSSYAISWVRQAPGQGLEWMGIIYPGDSTTRYSQKFQGRVTITADESTSTAYMELSSLRSEDTAVYYCYSGSGISTPMDVWGQGTLVTVSS
# VL: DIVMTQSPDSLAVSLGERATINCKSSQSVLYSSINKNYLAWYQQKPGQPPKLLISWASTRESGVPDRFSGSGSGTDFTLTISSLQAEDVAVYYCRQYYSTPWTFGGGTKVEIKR
# B11: COVID19_P09_E05 (scFv, V domains shown)
# VH: QVQLVQSGAEVKKPGSSVKVSCKASGGTFSSYAISWVRQAPGQGLEWMGIIYPGDSTTRYSQKFQGRVTITADESTSTAYMELSSLRSEDTAVYYCYSGSGISTPMDVWGQGTLVTVSS
# VL: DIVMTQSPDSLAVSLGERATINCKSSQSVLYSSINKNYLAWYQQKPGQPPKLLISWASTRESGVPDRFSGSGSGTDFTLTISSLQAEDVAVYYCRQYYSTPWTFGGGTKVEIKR
# B12: COVID19_P21_F08 (scFv, V domains shown)
# VH: QVQLVQSGAEVKKPGSSVKVSCKASGGTFSTYAFNWVRQAPGQGLEWMGVINTGGGSVTYAQKFQGRVTITADESTSTAYMELSSLRSEDTAVYYCAGGSGISTPGAVWGQGTLVTVSS
# VL: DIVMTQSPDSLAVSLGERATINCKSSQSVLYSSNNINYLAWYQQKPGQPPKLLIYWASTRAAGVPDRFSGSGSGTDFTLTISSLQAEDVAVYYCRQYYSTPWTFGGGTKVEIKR
# Assays:
# [1] = target: SARS-CoV-2 Receptor Binding Domain (RBD) protein (SARS-CoV-2, UniProt P0DTC2 319-541)
# [2] = target: T1, SARS-CoV-1 Receptor Binding Domain (RBD) protein (SARS-CoV-1, UniProt P59594 306-527); experiment: SPR; clone listed as COV2 only at the 21st table, row 45, column 3
# T1 construct: also called SARS1
# [3] = target: T2, MERS Receptor Binding Domain (RBD) protein (MERS virus, UniProt K9N5Q8 367-606); experiment: as above
# T2 construct: also called Middle East Respiratory Syndrome (MERS) virus
# T2 sequence: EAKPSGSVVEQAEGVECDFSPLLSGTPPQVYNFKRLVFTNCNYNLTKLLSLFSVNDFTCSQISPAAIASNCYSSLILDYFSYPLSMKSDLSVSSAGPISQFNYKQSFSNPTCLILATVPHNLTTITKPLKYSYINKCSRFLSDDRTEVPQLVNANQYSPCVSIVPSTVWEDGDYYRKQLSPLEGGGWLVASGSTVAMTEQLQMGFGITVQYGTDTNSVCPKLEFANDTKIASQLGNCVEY
# [4] = target: T1, SARS-CoV-1 Receptor Binding Domain …; experiment: SPR; clone listed as COV2 only at the 21st table, row 43, column 3
# [5] = target: T2, MERS Receptor Binding Domain (RBD) …; experiment: as above
# [6] = target: T1, SARS-CoV-1 Receptor Binding Domain …; experiment: SPR; clone listed as COV2 only at the 21st table, row 8, column 3
# [7] = target: T2, MERS Receptor Binding Domain (RBD) …; experiment: as above
# [8] = target: T1, SARS-CoV-1 Receptor Binding Domain …; experiment: SPR; clone listed as COV2 only at the 21st table, row 28, column 3
# [9] = target: T2, MERS Receptor Binding Domain (RBD) …; experiment: as above
# [10] = target: T1, SARS-CoV-1 Receptor Binding Domain …; experiment: SPR; clone listed as COV2 only at the 21st table, row 34, column 3
# [11] = target: T2, MERS Receptor Binding Domain (RBD) …; experiment: as above
# [12] = target: T1, SARS-CoV-1 Receptor Binding Domain …; experiment: SPR; clone listed as COV2 only at the 21st table, row 32, column 3
# [13] = target: T2, MERS Receptor Binding Domain (RBD) …; experiment: as above
# [14] = target: T1, SARS-CoV-1 Receptor Binding Domain …; experiment: SPR; clone listed as COV2 only at the 21st table, row 33, column 3
# [15] = target: T2, MERS Receptor Binding Domain (RBD) …; experiment: as above
# [16] = target: T1, SARS-CoV-1 Receptor Binding Domain …; experiment: SPR; clone listed as COV2 only at the 21st table, row 37, column 3
# [17] = target: T2, MERS Receptor Binding Domain (RBD) …; experiment: as above
# [18] = target: T1, SARS-CoV-1 Receptor Binding Domain …; experiment: SPR; clone listed as COV2 only at the 21st table, row 30, column 3
# [19] = target: T2, MERS Receptor Binding Domain (RBD) …; experiment: as above
# [20] = target: T1, SARS-CoV-1 Receptor Binding Domain …; experiment: SPR; clone listed as COV2 only at the 21st table, row 36, column 3
# [21] = target: T2, MERS Receptor Binding Domain (RBD) …; experiment: as above
# [22] = target: T1, SARS-CoV-1 Receptor Binding Domain …; experiment: SPR; clone listed as COV2 only at the 21st table, row 29, column 3
# [23] = target: T2, MERS Receptor Binding Domain (RBD) …; experiment: as above
# [24] = target: T1, SARS-CoV-1 Receptor Binding Domain …; experiment: SPR; clone listed as COV2 only at the 21st table, row 35, column 3
# [25] = target: T2, MERS Receptor Binding Domain (RBD) …; experiment: as above
Binder,Kd [1] [nM],koff [1] [s⁻¹],kon [1] [M⁻¹ s⁻¹],also measured
B1,16.4,0.00538,328000,binding result [2]: no binding (tested: up to 300 nM); binding result [3]: no binding (tested: up to 300 nM)
B2,26.1,0.015,570000,binding result [4]: no binding (tested: up to 300 nM); binding result [5]: no binding (tested: up to 300 nM)
B3,38.3,0.016,410000,binding result [6]: no binding (tested: up to 300 nM); binding result [7]: no binding (tested: up to 300 nM)
B4,1.92,0.000262,136000,binding result [8]: no binding (tested: up to 300 nM); binding result [9]: no binding (tested: up to 300 nM)
B5,2.95,0.000344,117000,binding result [10]: no binding (tested: up to 300 nM); binding result [11]: no binding (tested: up to 300 nM)
B6,8.81,0.00037,41900,binding result [12]: no binding (tested: up to 300 nM); binding result [13]: no binding (tested: up to 300 nM)
B7,6.01,0.000911,152000,binding result [14]: no binding (tested: up to 300 nM); binding result [15]: no binding (tested: up to 300 nM)
B8,4.24,0.00036,85000,binding result [16]: no binding (tested: up to 300 nM); binding result [17]: no binding (tested: up to 300 nM)
B9,0.29,5.7e-05,200000,binding result [18]: no binding (tested: up to 300 nM); binding result [19]: no binding (tested: up to 300 nM)
B10,0.5,5.7e-05,109000,binding result [20]: no binding (tested: up to 300 nM); binding result [21]: no binding (tested: up to 300 nM)
B11,0.2,5.7e-05,305000,binding result [22]: no binding (tested: up to 300 nM); binding result [23]: no binding (tested: up to 300 nM)
B12,16.3,0.000893,54900,binding result [24]: no binding (tested: up to 300 nM); binding result [25]: no binding (tested: up to 300 nM)
